Data from patent publication US20090081197A1, “Methods for Selection of Melanocortin Receptor-Specific Agents for Treatment of Obesity” (Palatin Technologies, Inc., priority 2007, published 2009).

Key:
[1] = target: human melanocortin 4 receptor (human) (UniProt P32245); assay: cell-based or functional assay
[2] = target: MC1-R of B-16 mouse melanoma cells (mouse) (UniProt Q01727); assay: radioligand competition, [I125]-NDP-α-MSH, B-16 membranes, 1 µM compound
[3] = target: human melanocortin 3 receptor (human) (UniProt P41968); assay: radioligand competition, [I125]-NDP-α-MSH, hMC3-R membranes, 1 µM compound
[4] = target: human melanocortin 4 receptor (human) (UniProt P32245); assay: radioligand competition, [I125]-NDP-α-MSH, hMC4-R membranes, 1 µM compound
[5] = target: human melanocortin 3 receptor (human) (UniProt P41968); assay: radioligand competition, [I125]-NDP-α-MSH, hMC3-R membranes
[6] = target: MC1-R of B-16 mouse melanoma cells (mouse) (UniProt Q01727); assay: radioligand competition, [I125]-NDP-α-MSH, B-16 membranes
[7] = target: human melanocortin 4 receptor (human) (UniProt P32245); assay: radioligand competition, [I125]-NDP-α-MSH, hMC4-R membranes
[8] = target: human melanocortin 5 receptor (human) (UniProt P33032); assay: radioligand competition, [I125]-NDP-α-MSH, hMC5-R membranes
[9] = target: human melanocortin 5 receptor (human) (UniProt P33032); assay: radioligand competition, [I125]-NDP-α-MSH, hMC5-R membranes, 1 µM compound

Sequence of human melanocortin 5 receptor (human) (P33032 whole entry): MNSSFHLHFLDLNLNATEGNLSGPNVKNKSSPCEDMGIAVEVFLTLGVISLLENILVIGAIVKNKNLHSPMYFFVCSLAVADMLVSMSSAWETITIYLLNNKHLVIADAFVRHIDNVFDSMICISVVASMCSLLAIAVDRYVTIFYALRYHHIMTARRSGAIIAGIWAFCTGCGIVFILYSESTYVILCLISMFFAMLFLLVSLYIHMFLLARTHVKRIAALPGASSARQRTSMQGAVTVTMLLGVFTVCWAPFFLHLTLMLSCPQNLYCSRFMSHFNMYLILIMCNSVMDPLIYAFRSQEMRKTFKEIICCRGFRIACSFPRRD
Sequence of MC1-R of B-16 mouse melanoma cells (mouse) (Q01727 whole entry): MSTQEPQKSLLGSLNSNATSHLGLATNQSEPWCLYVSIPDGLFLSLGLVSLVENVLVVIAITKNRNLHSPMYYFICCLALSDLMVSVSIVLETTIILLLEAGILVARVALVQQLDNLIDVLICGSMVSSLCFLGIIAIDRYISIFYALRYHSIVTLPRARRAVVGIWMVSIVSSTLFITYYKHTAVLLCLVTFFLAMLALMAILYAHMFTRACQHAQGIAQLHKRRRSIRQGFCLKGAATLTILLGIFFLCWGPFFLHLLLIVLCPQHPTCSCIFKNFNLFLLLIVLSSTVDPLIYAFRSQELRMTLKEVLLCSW
Sequence of human melanocortin 3 receptor (human) (P41968 whole entry): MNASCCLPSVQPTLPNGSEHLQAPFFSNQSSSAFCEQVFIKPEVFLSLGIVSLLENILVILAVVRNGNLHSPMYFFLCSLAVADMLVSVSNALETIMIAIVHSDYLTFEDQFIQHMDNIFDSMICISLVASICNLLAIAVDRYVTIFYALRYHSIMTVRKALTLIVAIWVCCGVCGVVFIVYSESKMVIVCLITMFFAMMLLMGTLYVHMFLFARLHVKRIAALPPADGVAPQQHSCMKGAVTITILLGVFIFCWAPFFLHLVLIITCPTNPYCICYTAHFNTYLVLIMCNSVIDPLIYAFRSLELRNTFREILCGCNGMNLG
Sequence of human melanocortin 4 receptor (human) (P32245 whole entry): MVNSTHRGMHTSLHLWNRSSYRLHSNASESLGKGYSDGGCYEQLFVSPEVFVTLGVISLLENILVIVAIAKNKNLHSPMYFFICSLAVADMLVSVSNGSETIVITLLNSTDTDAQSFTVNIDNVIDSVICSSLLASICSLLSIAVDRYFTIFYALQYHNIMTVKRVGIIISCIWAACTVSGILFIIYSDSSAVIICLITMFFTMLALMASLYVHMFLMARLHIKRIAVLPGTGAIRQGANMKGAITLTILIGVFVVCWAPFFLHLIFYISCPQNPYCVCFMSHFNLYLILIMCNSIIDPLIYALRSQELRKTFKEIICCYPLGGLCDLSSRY

Row | Substance | EC50 (nM) (cAMP), 0.1 ng/mL Doxycycline [1] | EC50 (nM) (cAMP), 10 ng/mL Doxycycline [1] | Efficacy/Intrinsic Activity (cAMP), 0.1 ng/mL Doxycycline [1] | Efficacy/Intrinsic Activity (cAMP), 10 ng/mL Doxycycline [1] | Inhibition at 1 µM (NDP-α-MSH) [2] | EC50 (nM) (cAMP), High Receptor Density System [1] | EC50 (nM), normal system (cAMP) [1] | Efficacy/Intrinsic Activity (cAMP), High Receptor Density System [1] | intrinsic activity, normal system (cAMP) [1] | Inhibition at 1 µM (NDP-α-MSH) [3] | Inhibition at 1 µM (NDP-α-MSH) [4] | Ki [5] | Ki [6] | Ki [7] | Ki [8] | Inhibition at 1 µM (NDP-α-MSH) [9]
1 | PT-141 (peptide) | 3 nM | 0.9 nM | 0.9 | 1 |  |  |  |  |  |  |  |  |  |  |  | 
2 | 7'-amino-heptanoyl-Ser(Bzl)-D-Phe(4-Cl)-Arg-S-(-)-1-(1-naphthyl)ethylamide (peptide) |  |  |  |  | 46% | 180 nM | 17 nM | 0.63 | 0.3 | 85% | 98% | 125 nM | 338 nM | 7 nM | 313 nM | 64%
3 | 2-naphthylacetyl-1-amino-1-cyclohexane-carbonyl-D-Phe(4-Cl)-Arg-Trp-NH2 (peptide) |  |  |  |  | 25% |  | > 1000 nM |  | 0.2 | 35% | 92% | 453 nM | 897 nM | 40 nM | 300 nM | 63%
